From paper PMC8922107

Molecular target: Flag-PKM2 from the nuclear fraction of U87 cells (UniProt P14618)
Assay: SEC; Flag-PKM2 eluted with flag peptide in TBS (25 mM Tris, 150 mM NaCl, pH 7.2); Superdex 200 increase 10/300 GL, 4 °C, 0.5 mL/min; fractions analysed by western blot

Chain of Flag-PKM2 from the nuclear fraction of U87 cells, P14618 1-531 (enzyme; other documents disagree on this pair) (P14618 whole entry): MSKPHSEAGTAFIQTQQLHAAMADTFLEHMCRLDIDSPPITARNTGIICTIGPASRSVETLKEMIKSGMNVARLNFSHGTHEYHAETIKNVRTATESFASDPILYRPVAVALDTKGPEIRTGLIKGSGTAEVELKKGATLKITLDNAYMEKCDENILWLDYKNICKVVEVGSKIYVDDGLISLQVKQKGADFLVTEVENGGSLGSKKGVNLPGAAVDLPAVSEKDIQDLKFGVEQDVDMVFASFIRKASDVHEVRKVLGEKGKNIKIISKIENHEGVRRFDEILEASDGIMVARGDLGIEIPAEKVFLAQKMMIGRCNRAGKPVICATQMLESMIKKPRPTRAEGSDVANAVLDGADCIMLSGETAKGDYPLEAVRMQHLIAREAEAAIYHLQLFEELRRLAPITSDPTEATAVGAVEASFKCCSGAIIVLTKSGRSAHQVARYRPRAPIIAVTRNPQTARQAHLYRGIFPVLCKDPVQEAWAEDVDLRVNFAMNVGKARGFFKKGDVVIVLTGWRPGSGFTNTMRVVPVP

## Flag-PKM2 from the nuclear fraction of U87 cells, P14618 1-531 (enzyme; other documents disagree on this pair)
  stoichiometry N: 2
